Experimental data: patent publication US20140114054A1 (UNIVERSITY OF MIYAZAKI, published 2014)

Molecular target: human TfR on TfR-expressing cells (human, UniProt P02786 1-760)
Experiment: cell-based or functional assay

Chain of human TfR on TfR-expressing cells (P02786 whole entry): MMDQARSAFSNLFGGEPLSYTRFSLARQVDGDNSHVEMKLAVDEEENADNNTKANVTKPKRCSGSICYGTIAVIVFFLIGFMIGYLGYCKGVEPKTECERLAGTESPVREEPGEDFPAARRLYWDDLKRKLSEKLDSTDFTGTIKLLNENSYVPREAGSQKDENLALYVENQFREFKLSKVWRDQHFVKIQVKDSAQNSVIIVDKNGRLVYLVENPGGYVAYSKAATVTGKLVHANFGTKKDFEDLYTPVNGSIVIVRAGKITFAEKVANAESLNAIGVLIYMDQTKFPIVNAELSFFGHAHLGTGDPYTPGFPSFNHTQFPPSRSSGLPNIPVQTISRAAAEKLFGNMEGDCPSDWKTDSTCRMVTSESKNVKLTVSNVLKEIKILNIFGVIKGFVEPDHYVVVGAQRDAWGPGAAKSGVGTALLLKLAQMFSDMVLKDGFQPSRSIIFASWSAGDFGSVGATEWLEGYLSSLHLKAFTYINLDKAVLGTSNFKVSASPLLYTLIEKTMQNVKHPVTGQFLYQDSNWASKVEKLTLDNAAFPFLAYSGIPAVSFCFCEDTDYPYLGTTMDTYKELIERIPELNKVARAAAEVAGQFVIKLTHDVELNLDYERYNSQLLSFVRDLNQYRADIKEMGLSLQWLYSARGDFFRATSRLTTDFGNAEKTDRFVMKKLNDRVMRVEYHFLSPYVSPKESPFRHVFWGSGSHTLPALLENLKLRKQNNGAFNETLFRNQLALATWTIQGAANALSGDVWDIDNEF

B1: TfR006 IgG antibody (antibody, V domains shown)
VH: QVQLVQSGGGVVQPGRSLRLSCAASGFPFKSYGMHWVRQAPGKGLEWVAVISFDGSSKYYADSVKGRFTISRDNSKNTLYLQMNSLRGEDTAVYYCARDSNFWSGYYSPVDVWGQGTTVTVSS
VL: NFMLTQPHSVSESPGKTVTISCTRSSGSIASNSVQWYQQRPGSAPITVIYEDTQRPSGVPDRFSGSIDSSSNSASLTISGLQTEDEADYYCQSYDSAYHWVFGGGTKLAVL
IC50 (ng/ml) of cell growth, A431: 36 ng/mL
IC50 (ng/ml) of cell growth, A549: 41 ng/mL
IC50 (ng/ml) of cell growth, BFTC905: 44 ng/mL
IC50 (ng/ml) of cell growth, DU145: 33 ng/mL
IC50 (ng/ml) of cell growth, HT29: 25 ng/mL
IC50 (ng/ml) of cell growth, K562: 50 ng/mL
IC50 (ng/ml) of cell growth, KLM1: 30 ng/mL
IC50 (ng/ml) of cell growth, MIAPaCa-2: 55 ng/mL
IC50 (ng/ml) of cell growth, MKN45: 26 ng/mL
IC50 (ng/ml) of cell growth, MT-2: 71 ng/mL
IC50 (ng/ml) of cell growth, NCI-H358: 37 ng/mL
IC50 (ng/ml) of cell growth, NCI-H1373: 127 ng/mL
IC50 (ng/ml) of cell growth, PK45-P: 100 ng/mL
IC50 (ng/ml) of cell growth, RAMOS: 8 ng/mL
